Experiment: protease stability score; higher = more stable; yeast display proteolysis, trypsin and chymotrypsin;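 further: relative to predicted unfolded state with 0 unfolded-like and 1 meaning tenfold more protease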

Work on “DEDTNLLREFVRLLSEALKTGDEDTLRTLFDPHVRFIIGDKDLVGREAFHFFLERFDVIRSVELHNYDHYGDKVTLDTRQVIHVNGQDIRIHSHIVVTKVNGRWRLESVKFK” yielded a protease stability score of 1.25.

With “DEDTQRREEWHHQFIMSMRTGDERLLLELVDPNYRSDINGVELHGWEFAEKLMRDAGVKHYELKRVHHIGDKMIVDGVTTFNGKERRVIFIARKIDGRWLITSSHFE” the protease stability score was 1.31.

With “DEDTQTLEKIWRDFVRALRTGDEDHLSRLLDPNTRIDINGKESHGRERAEEVLREMFERIDHFHRVEIHDRREVNGRVNLDTRRDVEVNGVRDMYTTHLIILKVDGKWSMKTIELK” the protease stability score was 1.33.

In the case of “DEDTRDAEHISRMMLHAFITGDERLIEKNADPDTRIDVNGVDYHGREEMVKLFKRWLDELGVNHMEIKETTTHVYDGRVEVVLHLHVDYNGRRHHLIIIIINDKFDGQWRIRSLEFEER”, the protease stability score is reported as 1.37.

Work on “DEDTRDAEQFLKELLHNQITGDEESEDKLADPNVRIIINGREIHGRETWIKWRRQARITFEDQRVHSIHMIGDKLVLKIEIDGNLSFNGREIRDTVEIEIVVTKVNGRWVLDQVHFK” yielded a protease stability score of 1.63.

“DEDTRDTEIAFELLLRHMYTGDWHLVERMLDPNVRVHQGDFHTVGWEDFVRISLEARLHDMRIHQVRSQGDFVEIDGHVDFEINGKRIRVRTILIVLKVNGRWFLKSIEIR” showed a protease stability score of 1.23.

In the case of “DEDTRDVDRFLKRLEETLLTGDWNSIRELFDPNVKVIFNGRHRHGWQNMVDILREIRVTDVRMELDDVEQYGDKITIRGRLRFKGEINGKEQDTSLTIEIILIKVNGKWSVNSIEFR”, the protease stability score is reported as 2.46.

In the case of “DEDTREAEKMYRLFRHLFLTGDWEHTYQLADPHVRTDFNGVEWHGRELALEILLHFLEILGVDHITLKRQEIHIVDGRLLVILHLELRAENHSEDLLIIVIMNKFDGRWHVESEEIKVR”, the protease stability score is reported as 0.539.

Work on “DEDTREKRRILEESLHIFETGDWEAMLKNADPNVRSEIHIGDKRLEFHGMRNWLEEWLTRLEKIKNMTFRIHDIRRQGDKVHIDGDLHVNGKHSKVRIELIIVDGVIHTLFFFDH” yielded a protease stability score of 0.953.

“DEDTRESEKMLSEILESHLTGNWRMIRHLADPHVRVEIGDKTYHGRDNLKRIFLDLLEKLGVDHMEFRDIHIRVQGDKLHIHIKVDLIVGDKVDIMQSHIHVEKINGRWYVHLVHWRLT” gave a protease stability score of 0.817.

In the case of “DEDTRIMEELLELTMEHVKTGDESSFRKLADPNVRMEYNGVEIHGREEASELFLEEMERIKNLTLRIKRLHIQGDKVIIYEEYEYGEKSWTVTYEAYKINGRWLMESIRFG”, the protease stability score is reported as 1.13.

“DEDTRKIYHWAELIVELLMTGDEDILHELADPDVKVHINGVTLHGREEADKFLEEWLRRFKNIQIRIRRITVINGRVDVESEVNVGDKRKDSRIHATVVNGRWKIISMDDH” showed a protease stability score of 1.42.

For “DEDTRLAEDELQLWVEHVETGDEDTLFELLDPNVRLHIGDKELHGREAWVQWLVEARVEHVHIRDIKVVDGKVLITGRIIFRVGDKRVDTDHHMIIEKINGRWVLHEIHFH”, the protease stability score was 2.07.

Work on “DEDTRLEKEFLRILEEILKTGDEERLRRLVDPNTRLEVGDKRFHGWDAVHYMLRIFGIERIHFELTSRRRVNGRLELDGILRFNGRDHDTHIIIDKINGVWIVREERVE” yielded a protease stability score of 2.19.

Sequence “DEDTRMNELFVRLFYELLTTGDEEHIHEMFDPHARLDFDGQQYHGREDAVRKMHELSRRLGIKHIEIREFRKVGDWANLHGKIYVNGQEYELHVILHKVDGRWITRDIRIK” has a protease stability score of 1.3.

“DEDTTMLEEMARLLVEMWLTGDEEKIYKLADPDVRLNVNGKDQIGREESEKLRRELLETLGIKHFEVEDLKIRLIDGRVNVHIYGIVKFNGVNVKMILDHHSRKVNGRWRIEHLRIIHI” gave a protease stability score of 1.32.

For “DEDVEDSLRALRELTKSLITGDEDSFRHLADPHARFIWNGKEIHGWEEVVKVVSKILKHLRFDDIILRDIRIQGDKIEFVVTDLVTVGDKHEEVDSRVTIYKVNGRWLLHTIKIR”, the protease stability score was 1.3.

In the case of “DEDVELFELIFKVMIELLETGNEELLRHLADPHTRVHINGVDFHGMEDWLKFLRHIRIEDIKIRHVSVVNGVMHAETETLMHVNGRDKRVDTRVTAIKINGRWVLKHVQYK”, the protease stability score is reported as 2.51.

“DEDVKLALHIIHLFIRALSTGNEELVKTYADPHWRLEIGDKILHGMDEWKEDLKELRIYYHHVTFRDYEIIDGRIIIHTELDGRLEVGDYEQRIRTRTHVFVDKINGRWDITHVEVR” showed a protease stability score of 1.2.

For “DEDVKTLEHLLRLINDINRTGDEERWMHEADPNTLVIYDGVESHGRESVMKLYHKHWEQLRIEEIHIHHIKMQGNKATIHGRLRGEIDGREKSFTIHVHIILINGQIQSITFRIE”, the protease stability score was 1.02.

For “DEDWHKLEETMRRFAKAMLTGDEDDLRKLADPDYRLDVNGRDLHGMESVKHWLDELRLVINDVKVREVHVIDGRLYLDTQVHSIETINGVEIRFVTETHVVIRKIDGKWINREMSIK”, the protease stability score was 0.285.

Work on “DEDYENFERFLKEWSHSVLTGNEDRLMELADPHTRLNINGVDIHGREEVLKFEHEHLKRVKGATLRRVRVRHYSFVNGVAFVETEFDGHINGVDYRLETEMHIHKFNGVWRMKHIEKK” yielded a protease stability score of 0.956.

Sequence “DEEALKKLQDILRRNDQDKMNKMIDKDVRVVIGEHEYRGKRNVQEALKREYEHADRFEVKHIEDHGDKLHVDVVLRVDGRDIRFVVVIDVHNGNIRNVKVDFTDEDTQRDFQRQLD” has a protease stability score of 1.02.

Work on “DEEDDEAREVHERLVRAFKTGNEELLLKMADPNTRDLFVVDGRTIHLVGWEHWRISLHELRIHDQRIRRSHVIDGRVHSDWEIDVEFNGRRSRKKLEIRIEVVNGVTKSVEFIFR” yielded a protease stability score of 1.31.

With “DEEDEALERSRQLLIKILRTGDFEDLDRMLDPHVRIIIGDKEFHGREEAIKWVRERMKRMGAKVVEHFNEDDWRLQGDKIELDGEYNVRQGDKQYHLRVHIISLKVDGKWYFHSLEIK” the protease stability score was 0.232.

“DEEDEANKQIMEHLRKVWDTGDFHTYLRLADPHMRFIVGDKIFHGREEITQLIKELLEKFGADHVELENSRESLVGDKLHLDLHTRYHFNGREIRVDVHNEVTKIDGKWHIKFLSLRIK” showed a protease stability score of 1.42.

“DEEDEASHLALRLLEFTMKTGDERVSKENFDPNVRIEINGVDLHGWEHLTRILREIRIHDVRIEHSEVQGEKLILHGRMHWRVNGRDIEVETQVHAIKVDGKWRTKRIHFD” showed a protease stability score of 1.49.

With “DEEDEDAHYALKLLLKMVHTGNEEDMQRYLDPNVRVEQGDYHYHGREASEIIKNRFKNVKVKVDHYEIQGEYVNLKVTIDVNGKHKQSTIIVHKFDGRWLIEKIIII” the protease stability score was 2.48.

For “DEEDEDARVALEEVMRSQITGDEEKSEKLIDPHVRLEIGDKIYHGRELVVRVEHELGVKHIEPKKVEMQGDWIDLHGVIVYGDKKIHQTLHLLKFNGKWLIKEIRIK”, the protease stability score was 1.6.

“DEEDEDIHRLFHELVEALLTGDERTLLRLIDPHARLIIGDKHFHGRELIVKIIYEMLRELRVHSINMHHIDVIGEKVVLDVHIHVEQGDKHRIIRVNIISKKIDGRWLIKSIKVH” showed a protease stability score of 1.16.

Sequence “DEEDEEFKRAMDDWIRAILTGDEQRVEELFDPNVRFQVNGKETVGRDFLIHYVREWRLDSKVDIKRSEVQGDKVRVDVTMKLTIDVNGQRIHDQHKVTIIAEKIDGRWEIKELIVH” has a protease stability score of 0.676.

Sequence “DEEDEELHRILQLLKEYWKTGDWERFHELADPNPLLIINGVENHGMDSVKHAWEEFRRRIDHNEKIEDKDSKRQGEFIVLHVKVDGHVNGRRTETDMHIILLIVNGKVKDVEIRIR” has a protease stability score of 1.38.

For “DEEDEELRRLLELLLRLYMTGDEHTLQTLADPHMKVRFHWDGREIRDHGRDALERHLKEWRVNDMDVNHFEAFNGRNMIDGILDGIINGVERRHKLELHFDLVNGRVKSVEIVLR”, the protease stability score was 1.08.

“DEEDEERTWAWEIFVKIIRTGDEQKLHEMADPHVRLHVGDKHEHGREELVKFFIDYILSLGVDHIEVHLKREDRINGRIHIDSKLRIEVGDKEITNNTHVLFLKVDGKWILKQVEIK” showed a protease stability score of -0.11.

Sequence “DEEDEESHRLMRETIHLLLTGDEEVWAQLADPDVRVLFNGVDYHGREEFLRIWHHMVKEIRVDKHEIKTIEVQGDKVLSDIRMHVEFNGKRTKVRVNLRLQSINGRTKYLSIHIH” has a protease stability score of 1.21.

For “DEEDEETREIAEMLHRWFITGDWKALMKYVDPNMRNIIHVNGRNIHTHGWKDMVKDLKDLGLENIHVDLKSISFQGDKAHIDGQLRVGDKEEKVEIHSEVVNGRIKRLEIRVH”, the protease stability score was 1.9.

“DEEDEHALRMARLWWKALTTGDEELLHKLMDPDVRVEINGVEIHGRETYERFLHKLRRDLGVKHIEIQFHHIELYGEKIIIEGTIFIRQGDKEHKERSIIILVVVDGRIKSSKIILL” showed a protease stability score of 2.19.

For “DEEDEHFEEVLRRTRHVWKTGDWRRLHELFDPNTRIHVNGRDVIGREEASRIIYEMLRQADHFHYRIRRFEIQGDKIHSEIEVIIIVNGRLIRLDTHVVAIKVNGRWVIESEEIR”, the protease stability score was 1.48.

Work on “DEEDEHLHQFLEDFKHNLKTGNFEAISKNADPHVRVIFNGRRFHGMENVKRLWEELGVDHVRIDHFELIDGRIDLNTTIEQGDKHRRTRLHILIVNGRIKSIHIHFE” yielded a protease stability score of 1.16.

Sequence “DEEDEHVKKAAEDFLRWWLTGDESRLLELFDPNMLLIIGDKHIHGRESVVHFFSELRERLGIDHIELEDVHIREVNGRAEFHSHILLHINGQKVKVDVRIHFHKVNGRWLFEHEHVEIR” has a protease stability score of 1.32.

Sequence “DEEDEIAEKIMRIILRAFTTGDEETVEKLVDPHARLEFNGRETHGRESWFKLMHHLRIRRMRIHNERIHTQGDFSLSHVRIEFDGEINGKRVEDETRMEIRVIVVNGVVKSVSLSTE” has a protease stability score of 1.35.

Sequence “DEEDEILERLFKLWIEEFLTGDWEAFHRYFDPRTRIHIGDKHHHGRTEYEKVAKHLNKRIDHVIIIIRRMEHQGDYIKVDTESRHKIDGVDISTHYILHHRIVDGKIHEIDVIYL” has a protease stability score of 0.647.

In the case of “DEEDEILERNFRKMLEDWKTGDEEMYSKLIDPHAKVDYNGREFVGREYAVEVWHKMGVDHIILRRSDVQGDKIKLDFESRQGDKSSNLKMESEKVNGVWLLHSVRYE”, the protease stability score is reported as 1.11.

Sequence “DEEDEILRHFLEEFWRAIRTGDEDTLMHLMDPHAKEEVNGRELHGRHEISRHLVKLGIKHMHIDDSKRYGDKITLHITVEVNGRKIDLEVYAIKVDGRWKIEHSQIK” has a protease stability score of 1.05.

Work on “DEEDEITDRLAKLLQHAYHTGDWKLWLNLADPHVRVDFNGVEIHGREEITDWFRKHYRDLGVTRFEVHVHHIHNIGDKIVQETHLLVNGRTFRTEVTIIVINGRVKSEHVNLR” yielded a protease stability score of 0.848.

Sequence “DEEDEITHKMLRRWFEILATGNEHLFQHYADPNVLVRYEVGDKEWRLHGREEALRYWSELRIHELKVEHFTEVGDKVHMDTRRKGEFDGRRDTKKTRVHIVIIDGRLHNVELRIV” has a protease stability score of 1.14.

Sequence “DEEDEKTRRMAELWSKWKSTGDEELFHHFADPRTRLEIGDKKYHGRDLISKIWFKERKEIRSDINIKDVDVFNGVAILHGTLILEINGQRDSIDVTFHIVLINGRIHEVRVEWR” has a protease stability score of 0.73.

In the case of “DEEDELAEHLLHIIIDALETGDWKFFADYFDPHTRLEIEIGDKRFQLHGRESIRKRWEEIWRELGVKHREIKSTRLIGDKIEMDVTINVGDKRIRHHIVIVIVNGRMKKEMVIVR”, the protease stability score is reported as 1.19.

In the case of “DEEDELFEIFIREWRRLVKTGNFKEIVDNADPHAKSVINGKELVGREHMSRLMLELGIKYYDERSWDVYGDKVVIHGREKFNGRESESIVFAEKVNGRWVLTKVEIR”, the protease stability score is reported as 1.45.

“DEEDELLERTLKEVAHAWRTGDWRRIEEMFDPNARVDINGVNFVGREEMHRILHEMRIEIEDFKLRRKRIVDGRLELDGEMLGIFRQGDKERRHRSRVFIVILKIDGRWVFEEVRFH” showed a protease stability score of 2.43.
